Data as given in paper PMC12667410 (Cell chemical biology, 2024).

How the values were obtained:
[1] = target: LgBiT Protein (LgBiT subunit of the NanoBiT luciferase; large, truncated fragment of NanoLuc) (Oplophorus gracilirostris); test: split reporter
SIRT5 = target: T1, SIRT5 (Homo sapiens, UniProt Q9NXA8); test: SIRTify cell-free assay, SIRT5; format: biochemical; conditions: ratio of IC50 values
T1 sequence (Q9NXA8 37-310): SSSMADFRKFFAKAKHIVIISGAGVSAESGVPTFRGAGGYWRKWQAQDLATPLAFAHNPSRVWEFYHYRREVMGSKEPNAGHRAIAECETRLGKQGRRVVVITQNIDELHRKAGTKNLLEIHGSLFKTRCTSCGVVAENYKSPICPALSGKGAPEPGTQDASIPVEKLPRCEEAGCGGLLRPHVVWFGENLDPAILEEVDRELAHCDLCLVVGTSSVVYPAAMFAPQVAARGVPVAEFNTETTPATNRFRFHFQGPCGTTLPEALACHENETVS

Row | fold decrease in luminescent signal against unmodified p86 [1] | fold reduced affinity compared to p86 [1] | lower IC50 for SIRT5 deglutarylase compared to desuccinylase activity (SIRT5) | Compound
1 | – | – | approximately 3 fold | O=C(O)CCNC(=S)NCCCC[C@H](NS(=O)(=O)c1cccc(F)c1)C(=O)N[C@@H](Cc1c[nH]c2ccccc12)C(=O)NC1CCC1 [SIRT5 Inhibitor I (S5I1)]
2 | 1.7 fold | – | – | p86-Succinyl9: H2N-VSGWRLFK(KSuc)IS-OH (peptide)
3 | 1.1 fold | – | – | p86-Acetyl8: H2N-VSGWRLF(KAc)KIS-OH (peptide)

The next lines start with the compound.

Row | Compound | fold decrease in luminescent signal against unmodified p86 [1] | fold reduced affinity compared to p86 [1] | lower IC50 for SIRT5 deglutarylase compared to desuccinylase activity (SIRT5)
4 | p86-Acetyl8,9: H2N-VSGWRLF(KAc)(KAc)IS-OH (peptide) | 5.8 fold | 175 fold | –
5 | p86-Succinyl8,9: H2N-VSGWRLF(KSuc)(KSuc)IS-OH (peptide) | 7.5 fold | – | –
6 | p86-Succinyl8: H2N-VSGWRLF(KSuc)KIS-OH (peptide) | 1.7 fold | – | –
7 | p86-Acetyl9: H2N-VSGWRLFK(KAc)IS-OH (peptide) | 1.1 fold | – | –
